B1: LYSMD4 (parent)
chain: LLQRELAQEDSLNKLALQYGCKVA
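Further: lentivirally expressed fusions sorted by FACS into six bins by GFP to DsRed ratio, PSI derived from sequencing read proportions per bin multiplied by bin number.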

Variants of B1 are the subject of this data set. Description: protein stability index of a GFP-peptide fusion (GPS, HEK-293T) (PSI 1-6); higher = more stable. The note with it: c terminus: a fixed tail appended.
For LLQRELAQEDSLNKCALQYGCKVA [L15C], the protein stability index came out at 2.34.

As for LLQRELAQEDSLNKQALQYGCKVA [L15Q], the protein stability index turned out to be 3.65.

In the case of LLQRELAQEDSLNKWALQYGCKVA [L15W], the protein stability index was found to be 1.2.

With LLQRELAQEDSLNKTALQYGCKVA [L15T], the protein stability index was 2.93.

In the case of LLQRELAQEDSLNKGALQYGCKVA [L15G], the protein stability index was found to be 3.11.

As to LLQRELAQEDSLNKVALQYGCKVA [L15V], the protein stability index came to 1.62.

For LLQRELAQEDSLNKPALQYGCKVA [L15P], the protein stability index turned out to be 3.97.

With LLQRELAQEDSLNKNALQYGCKVA [L15N], the protein stability index was determined as 3.75.

As to LLQRELAQEDSLNKDALQYGCKVA [L15D], the protein stability index is 4.51.

Consider LLQRELAQEDSLNKMALQYGCKVA [L15M], for which the protein stability index amounted to 2.85.

LLQRELAQEDSLNKHALQYGCKVA [L15H]: the protein stability index was 2.67.

On to LLQRELAQEDSLNKYALQYGCKVA [L15Y], for which the protein stability index was found to be 2.27.

As to LLQRELAQEDSLNKLALIYGCKVA [Q18I], the protein stability index was determined as 2.4.

On to LLQRELAQEDSLNKLALEYGCKVA [Q18E], for which the protein stability index was found to be 2.65.

As to LLQRELAQEDSLNKLALVYGCKVA [Q18V], the protein stability index worked out at 2.25.

For the variant LLQRELAQEDSLNKLALKYGCKVA [Q18K], the protein stability index was 2.42.

Consider LLQRELAQEDSLNKLALMYGCKVA [Q18M], for which the protein stability index was determined as 1.72.

Regarding LLQRELAQEDSLNKLALSYGCKVA [Q18S], the protein stability index amounted to 1.74.

For the variant LLQRELAQEDSLNKLALNYGCKVA [Q18N], the protein stability index worked out at 3.62.

LLQRELAQEDSLNKLALYYGCKVA [Q18Y]: the protein stability index was found to be 2.22.

Regarding LLQRELAQEDSLNKLALWYGCKVA [Q18W], the protein stability index is 2.51.

With LLQRELAQEDSLNKLALTYGCKVA [Q18T], the protein stability index is 1.18.

In the case of LLQRELAQEDSLNKLALPYGCKVA [Q18P], the protein stability index was determined as 2.95.

For LLQRELAQEDSLNKLALAYGCKVA [Q18A], the protein stability index is 1.65.

With LLQRELAQEDSLNKLALQDGCKVA [Y19D], the protein stability index was found to be 4.57.

Regarding LLQRELAQEDSLNKLALQIGCKVA [Y19I], the protein stability index was 1.59.

As to LLQRELAQEDSLNKLALQSGCKVA [Y19S], the protein stability index is 3.13.

Turning to LLQRELAQEDSLNKLALQFGCKVA [Y19F], the protein stability index is 2.06.

For LLQRELAQEDSLNKLALQRGCKVA [Y19R], the protein stability index was 1.85.

In the case of LLQRELAQEDSLNKLALQLGCKVA [Y19L], the protein stability index amounted to 2.34.

LLQRELAQEDSLNKLALQCGCKVA [Y19C]: the protein stability index worked out at 1.66.

Take LLQRELAQEDSLNKLALQAGCKVA [Y19A]: the protein stability index was 3.17.

Consider LLQRELAQEDSLNKLALQKGCKVA [Y19K], for which the protein stability index came out at 2.11.

Turning to LLQRELAQEDSLNKLALQQGCKVA [Y19Q], the protein stability index came to 3.78.

Take LLQRELAQEDSLNKLALQMGCKVA [Y19M]: the protein stability index was 2.02.

Consider LLQRELAQEDSLNKLALQPGCKVA [Y19P], for which the protein stability index turned out to be 3.28.

In the case of LLQRELAQEDSLNKLALQVGCKVA [Y19V], the protein stability index worked out at 2.02.

Turning to LLQRELAQEDSLNKLALQNGCKVA [Y19N], the protein stability index worked out at 3.4.

Take LLQRELAQEDSLNKLALQTGCKVA [Y19T]: the protein stability index worked out at 3.17.

Consider LLQRELAQEDSLNKLALQYGCKLA [V23L], for which the protein stability index is 2.04.

LLQRELAQEDSLNKLALQYGCKWA [V23W]: the protein stability index amounted to 2.34.

LLQRELAQEDSLNKLALQYGCKRA [V23R]: the protein stability index was found to be 2.47.

Regarding LLQRELAQEDSLNKLALQYGCKHA [V23H], the protein stability index was 2.77.

For the variant LLQRELAQEDSLNKLALQYGCKYA [V23Y], the protein stability index came to 2.45.

LLQRELAQEDSLNKLALQYGCKIA [V23I]: the protein stability index worked out at 1.89.

LLQRELAQEDSLNKLALQYGCKEA [V23E]: the protein stability index was 3.4.

Turning to LLQRELAQEDSLNKLALQYGCKAA [V23A], the protein stability index came out at 3.18.

Turning to LLQRELAQEDSLNKLALQYGCKNA [V23N], the protein stability index worked out at 3.62.

As for LLQRELAQEDSLNKLALQYGCKMA [V23M], the protein stability index came out at 1.75.

Turning to LLQRELAQEDSLNKLALQYGCKCA [V23C], the protein stability index stood at 1.83.

As for LLQRELAQEDSLNKLALQYGCKTA [V23T], the protein stability index was 2.58.

With LLQRELAQEDSLNKLALQYGCKPA [V23P], the protein stability index was determined as 3.4.

Take LLQRELAQEDSLNKLALQYGCKFA [V23F]: the protein stability index amounted to 2.96.

Consider LLQRELAQEDSLNKLALQYGCKSA [V23S], for which the protein stability index was determined as 2.9.

Turning to LLQRELAQEDSLNKLALQYGCKKA [V23K], the protein stability index was determined as 2.92.

For the variant LLQRELAQEDSLNKLALQYGCKGA [V23G], the protein stability index is 2.35.

With LLQRELAQEDSLNKLALQYGCYVA [K22Y], the protein stability index came out at 1.35.

Consider LLQRELAQEDSLNKLALQYGCGVA [K22G], for which the protein stability index was found to be 2.93.

In the case of LLQRELAQEDSLNKLALQYGCLVA [K22L], the protein stability index stood at 1.62.

Turning to LLQRELAQEDSLNKLALQYGCQVA [K22Q], the protein stability index is 2.21.

Take LLQRELAQEDSLNKLALQYGCHVA [K22H]: the protein stability index worked out at 3.15.

In the case of LLQRELAQEDSLNKLALQYGCPVA [K22P], the protein stability index is 3.45.

For the variant LLQRELAQEDSLNKLALQYGCSVA [K22S], the protein stability index is 2.2.

Consider LLQRELAQEDSLNKLALQYGCTVA [K22T], for which the protein stability index is 1.32.

Take LLQRELAQEDSLNKLALQYGCIVA [K22I]: the protein stability index is 1.78.

Consider LLQRELAQEDSLNKLALQYGCDVA [K22D], for which the protein stability index is 2.08.

As to LLQRELAQEDSLNKLALQYGCAVA [K22A], the protein stability index turned out to be 2.7.

Consider LLQRELAQEDSLNKLALQYGCEVA [K22E], for which the protein stability index is 3.75.

As to LLQRELAQEDSLNKLALQYGCRVA [K22R], the protein stability index worked out at 1.29.

In the case of LLQRELAQEDSLNKLALQYGCNVA [K22N], the protein stability index stood at 2.65.

Take LLQRELAQEDPLNKLALQYGCKVA [S11P]: the protein stability index is 1.48.

Consider LLQRELAQEDYLNKLALQYGCKVA [S11Y], for which the protein stability index came out at 2.28.

On to LLQRELAQEDGLNKLALQYGCKVA [S11G], for which the protein stability index is 2.25.

Regarding LLQRELAQEDMLNKLALQYGCKVA [S11M], the protein stability index turned out to be 2.39.

In the case of LLQRELAQEDILNKLALQYGCKVA [S11I], the protein stability index came to 1.04.

Consider LLQRELAQEDTLNKLALQYGCKVA [S11T], for which the protein stability index was 1.38.

As to LLQRELAQEDRLNKLALQYGCKVA [S11R], the protein stability index came to 2.65.

Turning to LLQRELAQEDHLNKLALQYGCKVA [S11H], the protein stability index amounted to 2.01.

Turning to LLQRELAQEDKLNKLALQYGCKVA [S11K], the protein stability index was determined as 2.01.

Consider LLQRELAQEDSLNKLAYQYGCKVA [L17Y], for which the protein stability index was determined as 1.18.

For the variant LLQRELAQEDSLNKLANQYGCKVA [L17N], the protein stability index worked out at 1.57.

Regarding LLQRELAQEDSLNKLAIQYGCKVA [L17I], the protein stability index turned out to be 1.45.

Consider LLQRELAQEDSLNKLAAQYGCKVA [L17A], for which the protein stability index came to 1.84.

LLQRELAQEDSLNKLAVQYGCKVA [L17V]: the protein stability index was found to be 2.06.

LLQRELAQEDSLNKLATQYGCKVA [L17T]: the protein stability index amounted to 1.09.

Take LLQRELAQEDSLNKLAEQYGCKVA [L17E]: the protein stability index is 1.82.

Consider LLQRELAQEDSLNKLAKQYGCKVA [L17K], for which the protein stability index worked out at 2.5.

As for LLQRELAQEDSLNKLAQQYGCKVA [L17Q], the protein stability index amounted to 2.12.

On to LLQRELAQEDSLNKLACQYGCKVA [L17C], for which the protein stability index was found to be 1.49.

Take LLQRELAQEDSLNKLAHQYGCKVA [L17H]: the protein stability index was determined as 2.29.

Regarding LLQRELAQEDSLNKLAPQYGCKVA [L17P], the protein stability index is 2.98.

As to LLQRELAQEDSLNKLAGQYGCKVA [L17G], the protein stability index came to 2.98.

Take LLQRELAQEDSLNKLAWQYGCKVA [L17W]: the protein stability index stood at 2.65.

For LLQRELAQEDSLNKLAFQYGCKVA [L17F], the protein stability index turned out to be 3.31.

Values taken from the supplement of paper PMC10567573.
